Experimental data: the nanobody polyreactivity screen of Harvey et al. (2022)

Experiment: yeast display, Sf9 membrane polyspecificity reagent, FACS + sequencing; frameworks hold sequencing errors
Method in brief: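 Polyreactivity labels are assigned by the sorting gate from which each nanobody was recovered. The gates were low and high (top ~1%), set on anti-HA fluorescence for expression and streptavidin fluorescence for reagent binding. Before sorting, galactose-induced (36–48 hours) yeast display cells were stained for 1 hour at 4 °C with 10% biotinylated, detergent-solubilized Sf9 membrane reagent.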

Row | Sequence | polyreactivity (PSR sort gate)
1 | QVQLVESGGGLVQAGGSLRLSCAASGLIFYIYAMGRYREAPGKERELVAAISSSGGSTFYADSVKGRFTISRDNAKNTVYLQMNSLKPEDTAVYYCAAYYGGGYGFHRDYWGQGTQVTVSS | high polyreactivity
2 | QVQLVESGGGLVQAGGSLRLSCAASGITFGYYAMGWYRQAHGKERELVAAITYSGGSTYYADSVKGRFTISRDNAKNTVYLQMNSIKPEDTAVYYCAADDGYTYYWAGYDSWGQGTQVSVSS | low polyreactivity
3 | QVQLVETRGGLLQAGGSLRLSCDASGRTFAYYAMGRYRQAPGKESELVAAITYSDGSTYYADSVKGRFTISRDNAKNTFYLQMNSLKPEDPSVYYCAKGLSREEPENDYDYWGQGTQVTVSS | low polyreactivity
4 | QVQLVESGGGLVQAGGSLRLICAASGSIITGYPMGWYRQAPGKERELVAGINSGTSTNFADSVKGRFTISRDNAKNTVFLQMNSMKPEDTAVYYCAKTAERRHYGVYRFDYWGQGTQVTVSS | low polyreactivity
5 | QVQLVESGGGLVQAGGSLRLRCAASGLIFYVYAMGWYRQAPGKERELVAAISYRGGSTYADSVKGRFTISRDNAKNTVYLQMNSLKPEDTAVYYCAAQRWYVYGLKYHYGYWGQGTQVTVSS | high polyreactivity
6 | QVQLVESGGGLVQAGGSLRLSCAASGSTFSLYTMGWYRQAPGKERELVAAITWTGGSTYYADSVKGRFTISRDNAKNTVYLQMNSLKPEDTAVYYCAAVSRLTGSRESQLIRSRMYYWGQGTQVTVSS | high polyreactivity
7 | QLQHVDSGGGLVQAGGSLRLSCATSGIIFYDYDIGWSRQAPEKESELVARISRNGGRTYYADSVKGRFTISRDNAKNTVYLQMNSLNPEDTAVYYCNGVYFVTTSPGSDYWGQGTQVTVSS | high polyreactivity
8 | QVQLVESGGGLVQAGGSLRLSCAASGRILKYYDMGWYRQAPGKERELVAAISVSGTSTYYADSVKGRFTISRDNAMNTVYLQMNSLKPEVTAVYYCATATGRYSFDYWGQGTQVTVSS | low polyreactivity
9 | QVQLVESGGDLVQAGGSLRLSCAASGSIFCYYVMGWYRQAPGKERELVAAITVSGAGTYNADSVKGRFTISRDNAKNTVYLQMNSLKPEDTAVYYCAARWLGHFYPFFLQGLSGFDYWGQGTQVTVSS | low polyreactivity
10 | QVQLVESGGGLVQAGGSLRLSCAASGITFYPYTLGWYRQAPGKERELVASISTSGTNYADSVKGRFTISRDNAKNTVYLQMNSLKPEDTAVYYCAADIWSYYRSTHVDSWGQGTQVTVSS | low polyreactivity
11 | QVQLVESGGGLVQAGGSLRLSCAASGNTIVTNTMGWYRQAPGKERELVAAIDSGGDTYYADSVKGRFTISRDNAKNTVYLQMNSLKPEDTAVYYCAAVGDPNYFSNRRYEYWGQGTQVTVSS | low polyreactivity
12 | QVQLVESGGGLVQAGGSLRLSCAASGRTFAYNAMGWYRQAPGKERELVAAITFGGGSTYYADSVKGRFTISRDNAKNTVYLQMNSLKPEDTAVYYCTAERGYYYHFGYWGQGTQVTVSS | high polyreactivity
13 | QVQLVESGGGLVQAGGSLRLSCAASGRTFSLYAMGWYRQAPGKERELVAAITLSAGSTYYADSVKGRFTISRDNAKNTVYLQMNSLKPEDTAVYYCNAAAYVWKSKQLLYVITYDYWGQGTQVTVSS | high polyreactivity
14 | QVQLVESGGGLVQAGGSLRLSCAASGSTLKSYVMGWYRQAPGKERELVARISRSGGSTYYADSVKGRFTISRDNAKNTVYLQMNSLKPEDTAVYYCAAATPRLSYDYWGQGTQVTVSS | high polyreactivity
15 | QVQLVESGGGLVQAGGSLRLSCAASGRTFSYYVMGWYRQAAGKERELVAAISRTTRTYYADSVKGRFSISRDNAKNTVYLHMNSLKPEDTAVYYCAADFPKGHYHYWGHGTQVTVSS | high polyreactivity
16 | QVQLVESGGCLVKAGGSLRISCAASGFTFTKYAMGWYRPAPGKESELVAAINRSGRTYYADSVKGRFTISRDNAKNTVYLQMNSLKPEDTAVYDCAAYTRYQYRAYDYWGQGTQVTVSS | high polyreactivity
17 | QVQLVESGGGLVQAGGSLRLSCAAYGSIFDSNTMGWYRQAPGKERELVAGISTGGSTNYADSVKGRFTISRDNAKNTVYLQMNSQKPEDTAVYYCNADLGSSYDWGQGTQVTVSS | low polyreactivity
18 | QVQQQESGGGLVKAGGSLRLSCAASGNNSPRDAMGWYRQAPGEERDLVASNAYSAITYYADGVKGRYTISRDNAKNTVYLQMNSLKPEDTEVYYCAVYQFTYPVFPAYWGQGTQVTVSS | low polyreactivity
19 | QVQLVESGGGLVQAGGSLRLSCAASGIIFSIYVMGWYRQAPGKERELVAAISRSGGSTYYADSVKGRFTISRDNAKNTVYLQMNSLKPEDTAVYYCAKKPTSTYQPDSPRWSDYWGQGTQVTVSS | high polyreactivity
20 | QVQLVESGGGLVQAGGSLRLSCAASGSIFLRNAMGWYRQAPGKERALVAAISWGGRTYYADSVKGRFTISRDNAKNTVYLQMNSLKPEDTAVYYCAADGTWVRSPHFYYWGQGTQVTVSS | low polyreactivity
21 | QVQLVESGGGLVQAGGSLRLSCAASGSTFIEYAMGWYRQAPGTERELVAGITTSSGRTSYADSVKGRFSISRDNAKNTVYLQMNSLKPEDTAVYYCAADIYYYSPYDSFWYSEVDYWGQGTQVTVSS | low polyreactivity
22 | QVQLVESGGGLVQAGGSRRLSCAASGRTIGVYAMGWYRQAPGKERELVAAFSWSGGTTYYADSVKGRFTISCDNAMNTVYLQLNSLKPEDNAVYYCAADSFTEVDYWGQGTQVTVSS | low polyreactivity

Row | Sequence | polyreactivity (PSR sort gate)
23 | QVQLVESGGGLVQAGGSLRLSSAASGLTIYYYAMGWYRQAPGKERELVAAITWRGGSTYYADSVKGRFTISRDNAKYPDYLQMNCLIPAVTAVYYSAADPGPYGYYYWGQGTQVTVSS | low polyreactivity
24 | QVQIVESGGGLVQAGGSLRLSCAASGRIFVYNAMGWYRQAPGKERELVAAISSTGSTNYADSVKGRFTISRDNAKNTVYLQMNSLKPEDTAVYYCAAVYYFYGFSGYYGQYDYWGQGSQVTVSS | low polyreactivity
25 | QVQLVESGGGLVQAGGSLRLSCAASGSNFDIYGMGWYRQAPGKERELVASISGGAGSTNYADSVKGRFTISRDNAKNTVYLQMNSLKPEDTAVYYCAAEVYVPDSFQHKFDVEYEYWGQGTQVTVSS | low polyreactivity
26 | QVQLVESGGGLVQAGGSLRLSCAASGSTFNRNTMGWYRQAPGKERELLAAISRRGGSTYYADSVKGRFTISRDNAKNTVYLQMNSLKPEDTAVYYCAAGREYRVYKGAQEFDYWGQGTQVTVSS | high polyreactivity
27 | QVQLVESGGGLVQAGGSLRLSCAASGNIFYYYAMGWYRQAPGKERELVAAISWRGGITYYANSVKGRFTISRDNAKNTVYLQMNSLKPEDNAVYYCNAVQPGYPNGFAVRYNYWGQGTQVTVSS | low polyreactivity
28 | QVQLVESGGGLVQAGGSRRLSCAASGRTFIVYAMGWYRQAPGKERELVARISSGSRTSYADSVKGRFTISRDNAKNTVYLQMNSLKPEDTAVYYCAKSRVIKYEFDYWGQGTQVTVSS | low polyreactivity
29 | QVQLVESGGALVQAGGSLRLSCAASGFIFYSWYAMGWYRQAPGKQRELVAAIRSGGSTYYADSVKGRFTISRDNAKNTVYLQMNSLKPEDTAVYYCAVKYSWSEYGYWGQGTQVTVSS | low polyreactivity
30 | QDQLVESGGGLVQAGGSLRLSCAASGSIFVIYAMGWYRPAPGKERQLVAAITTIGGRTYYADSVKGRFTISRDHAKNTVYLQMNSLKPEDTAVYYCAADIRSNRLYDGGYWGQGTQVTVSS | low polyreactivity
31 | QVQLVESGGGLVQAGGSLRLSCAASGLNLKRYAMGCYTQAPGKERELVAAISKSGGSTYYADSVKGRFTISRDNAKNTVYLQMNSLKPEDTAVYYCAADSYNLWDDYWGQGTQVTVSS | low polyreactivity
32 | QVQLQESGGGLVQAGGSQRLSCSASGYIFYFQYMGWYRQAPGKEREFVAAISDGANTNYADSVKGRFNISRDNAKNTEYLQMNSLKPEDTAVYYCAARSFFKMYYWGQGTQVTVSS | low polyreactivity
33 | QVQLVESGGGLVQAGGSLRLSCAASGFILRYYAMGWYRQPPGKERELVAAISWSGGSTYYADSVMGRFTISRDNAKNTVYLQMNSLKPEDTAVYYCAADRYAILFYAEDYWGQGTQVTVSS | low polyreactivity
34 | QGQLVESGGGLVQAGGSLRLSCAASGSSFRGNALGGYRQAPGKERELVASISYSGGSTYYADSVKGRFTISRDSAKNTVYLQMNSLKPEDTAVYYCAADDSVAYPYSGYQYYRHIYDDWGQGTQVTVSS | low polyreactivity
35 | QVQLEESGGGLVQAGGSLRLSCAASGGTFGWYAMGWYRPAPGTERELVAAITSSGGTTFYADSVKGRFTISRDTAKNTVYLQMNSLKPEDTAVYYCAKRGKRPTRYKLGKYDYWGQGTQVTVSS | high polyreactivity
36 | QVQLVESGGGLVQAGGSLRLSCADSVIIFRVYVMGCYRQAPGKERELVDAISTSGGRTSYADSVKGRFTISRDNAKNTVYLQMNSLKPEDTAVYYCAARPLYSYSQWGYGYWGQGTQVTVSS | high polyreactivity
37 | QVQLVESGGGLVQAGGSLRLSCAASGITFYGNDMGGYRQAPGKERELVAAISYSGGSTYYADSVKGRFTISRDNAKNTVYLQMNSLKPEDNAGYYCAVEGTKLYEYYWGQVTQVTVSS | low polyreactivity
38 | QVQLVESGGGLVQAGGSLRLSCAASGRTFNYYAMGWYRQAPGKERELVAAISTSGGSTYYADSVKGRFTISRDNAKNTVYLQMNSLKPEDTAVYYCNAVYRVWYAEWSTVGSPHDYWGQGTQVTVSS | low polyreactivity
39 | QVQLVESGGGLVQAGGSLRLSCAASGSIFYKYTMGWYRPAPGKERELVAAITKSGGSTYYADSVKGRFTISRDNAKNTVYLQMNSLKPEDTAVYYCAARRYRYYSRGSWGQGTQVTVSS | high polyreactivity
40 | QVQLVESGGGLVQAGGSLRLRCAASGFIFCSYAMGWYRQAPGKERELVAAINTSGDSTYYADSVKGRFTISRDNAKNTVYLQINSLKPEDTAVYYCAAESSPDGYFLSDYWGQGTQVTVSS | low polyreactivity
41 | QVQLVESGRGFVQAGGRLRLSCAASGRTFGRYTMGWYRQAPGKDRELVASISNTARTNYADSVKGRFTISRDNAKNTVYLQMNSLKPEDTAVYYCAATYIVRYGYWGQGTQVTVSS | low polyreactivity
42 | QVQLVESGGGLVQAGGSLRLSCAASGSIFRWNAMGWYRQSPGKERELLAAIDSGGSTYADSVKGRFTISRYNAKNTVYLQMYSLKPEDTAVYYCAAEIPDEWPYDYWGQGTQVTVSS | low polyreactivity
43 | QVQLVESGGGLVQAGGSLRLSCAAAGIISPFYAMGWYRQAPGKERELVADISTGGTTTYADSVKGRFTISRDNAKNTVYLQMNSLKPVDTAVYYCNAEVCLTYYWIVWASYDYWGQGTQVTVSS | low polyreactivity
